Source: PMC7116351 (Protein expression and purification, 2019)

Target: the molecule itself
Test: SEC

B1: MgtE Mg2+ channel from Thermus thermophilus (wild type) (natural protein, UniProt Q5SMG8 1-450, looked up)
chain: MEEKLAVSLQEALQEGDTRALREVLEEIHPQDLLALWDELKGEHRYVVLTLLPKAKAAEVLSHLSPEEQAEYLKTLPPWRLREILEELSLDDLADALQAVRKEDPAYFQRLKDLLDPRTRAEVEALARYEEDEAGGLMTPEYVAVREGMTVEEVLRFLRRAAPDAETIYYIYVVDEKGRLKGVLSLRDLIVADPRTRVAEIMNPKVVYVRTDTDQEEVARLMADYDFTVLPVVDEEGRLVGIVTVDDVLDVLEAEATEDIHKLGAVDVPDLVYSEAGPVALWLARVRWLVILILTGMVTSSILQGFESVLEAVTALAFYVPVLLGTGGNTGNQSATLIIRALATRDLDLRDWRRVFLKEMGVGLLLGLTLSFLLVGKVYWDGHPLLLPVVGVSLVLIVFFANLVGAMLPFLLRRLGVDPALVSNPLVATLSDVTGLLIYLSVARLLLEAV
  stoichiometry N: 2
